# Source: publication PMC3747075
# Target: human DNM1L GTPase-GED (GG) fusion protein (human) (UniProt O00429)
# Assay: SEC; 60 µM protein incubated 30 min at 37°C with 2 mM GDP or GTP, 20 mM NaF and 2 mM AlCl3 (transition state mimic GDP/AlF4-); 20 mM Tris/HCl pH 8.0, 150 mM NaCl, 2 mM EGTA, 4 mM MgCl2, 1 mM DTT; Superdex S 75 HR 10/300; dimer at 9.5 ml, monomer at 11 ml
substance,measurement,value
human DNM1L GTPase-GED (GG) fusion protein (from UniProt O00429 1-325) (domain or fragment),stoichiometry N,2
